Measurements published in PMC11482907 (bioRxiv, 2024).

Target: the molecule itself
Assay: cryo-EM structure

B1: HCMV UL141 soluble ectodomain (residues 30-278) with C-terminal 8X His-Tag (domain or fragment)
chain: SFPFATADIAEKMWAENYETTSPAPVLVAEGEQVTIPCTVMTHSWPMVSIRARFCRSHDGSDELILDAVKGHRLMNGLQYRLPYATWNFSQLHLGQIFSLTFNVSTDTAGMYECVLRNYSHGLIMQRFVILTQLETLSRPDEPCCTPALGRYSLGDQIWSPTPWRLRNHDCGMYRGFQRNYFYIGRADAEDCWKPACPDEEPDRCWTVIQRYRLPGDCYRSQPHPPKFLPVTPAPPADIDTGMSPWATR
  stoichiometry N: 2
